Literature values, collected in article PMC9437294.

Target: 5-HT1A receptor C-terminus (UniProt P19327)

Yif1B N-terminal region (from UniProt Q6PEC3)
Kd: 0.037 µM
